Assay results from paper PMC8708588, “Easy Expression and Purification of Fluorescent N-Terminal BCL11B CCHC Zinc Finger Domain” (Molecules, 2021).

T1: CyPet-BCL11B_(42-94) (UniProt Q9C0K0 42-94)
T1 construct: B-cell lymphoma/leukemia 11B (BCL11B), N-terminal atypical CCHC zinc finger domain, amino acids 42-94; codon-optimized insert; Order on the chain: His6, CyPet, flexible linker (GGGGS)3, TEV-cleaving site, XhoI site, BCL11B 42-94, KpnI site; Fusion of 36 kDa; CyPet already has lysine at position 206; also called fluorescently tagged BCL11B_(42-94); CyPet-tagged N-terminal BCL11B CCHC zinc finger …
T1 sequence (looked up): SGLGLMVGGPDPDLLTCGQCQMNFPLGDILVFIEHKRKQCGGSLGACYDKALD

B1: mEYFP-BCL11B_(42-94) (domain or fragment, UniProt Q9C0K0 42-94, looked up)
chain: T1 sequence (looked up)
notes: B-cell lymphoma/leukemia 11B (BCL11B), N-terminal atypical CCHC zinc finger domain, amino acids 42-94; codon-optimized insert; Fusion of 36 kDa; also called fluorescently tagged BCL11B_(42-94); source: E. coli NiCo21 (DE3), purified (IMAC, HisTrap excel); not shown: His6, N-terminal, kept; mEYFP (EYFP with A206K), N-terminal, kept
B2: untagged BCL11B_(42-94) zinc finger domain (domain or fragment)
chain: GLESGLGLMVGGPDPDLLTCGQCQMNFPLGDILVFIEHKRKQCGGSLGACYDKALD
notes: B-cell lymphoma/leukemia 11B (BCL11B), N-terminal atypical CCHC zinc finger domain, amino acids 42-94; 5.5 kDa; source: E. coli NiCo21 (DE3); TEV digest of purified CyPet- or mEYFP-BCL11B_(42-94), flow-through of IMAC; not shown: His6, N-terminal, cleaved; CyPet or mEYFP, N-terminal, cleaved

Columns and labels:
[1] = molecular target: the molecule itself; experiment: SEC; Superdex 200 Increase 3.2/300 on ÄKTAmicro; sizes from a calibration curve with protein standards
[2] = molecular target: T1, CyPet-BCL11B_(42-94); experiment: FRET or BRET; CyPet- and mEYFP-tagged domain mixed 1:1, total protein 200 µg/mL, 20 mM HEPES, 150 mM NaCl, 1 mM DTT, pH 7.4; incubated 48 h at 4 °C; excitation 400 nm, emission spectra 420-700 nm at room temperature; settings: both partners purified

Binder | binding result [1] | binding result [2] | stoichiometry N [1]
B1 | binds | binds | –
B2 | – | – | 4
